A short description of this data set: yeast display, Sf9 membrane polyspecificity reagent, FACS + sequencing; frameworks hold sequencing errors. A digest of the protocol:
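Galactose-induced (36–48 hours) yeast carrying a synthetic nanobody display library were exposed to 10% biotinylated, detergent-solubilized Sf9 membrane reagent at 4 °C for 1 hour. FACS followed streptavidin microbead enrichment, using low and high (top ~1%) gates for expression (anti-HA) and reagent binding (streptavidin). Colony PCR, MiSeq 2 × 250 sequencing and CDR-length filtering followed. Labels for polyreactivity reflect the gate of origin.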
In the case of “QVQLVESGGGLVQAGGSLRLSCAASGRIFEFYAMGWYRQAPGKERELVAAISFSGTSTYYADSVKGRFTISRDNAKNTVYLQMNSLKPEDTAVYYCAVRGVGADYDYWGQGTQVTVSS”, the “polyreactivity (PSR sort gate)” value was “low polyreactivity”.
Then “QVQLVESGGGLVQAGGSLRLSCAASGITFTSYAMGWYRQAPGKERELVAAISSSGVRTYYADSVKGRFTISRDNAKNTVYLQMNSLKPEDTAVYYCATRRRVLYGYDYWGQGTQVTVSS”, with “high polyreactivity”.
Then “QVQLVESGGGLVQAGGSLRLSCDASGSIFRYYGMGWYRQAPGKERELVAAISARGGSTRYADSVKGRFTISRDNAKNTVYLQMNSLKPEDTAVYYCAAGYPYDYDYWGQGTQVTVSS”, with “high polyreactivity”; and “QVHLVESGAGLVKAGGSLRLSCAASGRTFRYNAMGWYRQQPGNERELVATITTRGGSTYYADSVKGRFTISRDNAKNTVYLQMNSLKPEDTAVYYCATKWPVYPTGYDYWGQGTQVTVSS”, with “low polyreactivity”.
As for “QVQLVESGGGLVQAGGSLRLSCAASGRTTYWYAMGWYRQAPGKERELLADISWSGGSTYYADSVKGRFTISRDNAKNTVYIQMNSLKPEDTAVYYCNAAEQKYSIYYAFDTGPYDYWGQGTQVTVSS”, the “polyreactivity (PSR sort gate)” value is “low polyreactivity”.
Regarding “QVQLVESGGGLVQAGGSLRLSCAASGFTFRNYAMGWYIQAPGKERELVATISWSGGSTYYADSVKGRFTISRDNAKNTVYLQMNSLKPEDTAVYYCAAKTILWKYYPYYYVTYDYWGQGTQVTVSS”, the “polyreactivity (PSR sort gate)” value is given as “high polyreactivity”.
Under “QVQLVESGGGLVQAGGSLRLSCAASGTFQRYAMGWYRQAPGKERELVAGISSAGDTNYADSVKGRFTISRDNAKNTVYLQMKSLKPEDTAVYYCNAAYFAGPADDKFDYWGQGTQVTVSS” stands “low polyreactivity”; under “QVQLVESGGGLVQAGGSLRLSCAASGRTFDSYTMGWYRQAPGKERELVADITFTGGSTYYADSVKGRFTISRDNAKNTVYLQMNSLKPEDTAVYYCNADREYKWYFRYDYWGQGTQVTVSS”, “low polyreactivity”.
Then “QVQLVESGGGLVQAGGSLRLSCAASGSIFYHYAMGLYRQAPGKERELVAAISGSGGSTYYADSVKGRFTISRDNAKNTVYLQMNSLKPEDTAVYYCAADTSRYHYTRYFFDSDYWGQGTQVTVSS”, with “low polyreactivity”; and “QVQLVESGGGLVQAGGSLPLSCAASGRIFVVYAMGWYRQAPGKERDLVAGISWTDGRTYYADSVKGRFTISRDNAKNTVYLLMNSLKPEDTAVYYCNKARTSQYHHTYWRTYGYWGQGTQVTLSS”, with “low polyreactivity”; and “QVQLVESGGGLVQAGGSLRLSFAASGITFVRYAMGWYRQPPGKERALVAAISRSGTSTYSADSVKGRFTISRDNAKNTVYLQMNSLKPEDTAVYYCYVRRYDYWGQGTQVTVSS”, with “high polyreactivity”.
Under “QVQLVESGGGLVQAGGSLRLSCAASGSTSSVYAMGWYRQAPGKERELVAAISYRGARTYYADSVKGRFTISRDNAKNTVYFQMNSLKPEDTAVYYCAAENYPRRPRYDYWGQATQVTVSS” stands “high polyreactivity”; under “QVQLVESGGGLVQAGGSLRLSCAASGFIFDLYAMGWSRQAPGKERELVAAITYSGGSTYYADSVKGRFTISRDNAKNTVYLQMNSLKPEDTAVYYCAAYYGGRGYWGQGTQVTVSS”, “low polyreactivity”; under “QVQLVESGGGLDQPGGSLRLSCAASGRIFRTYAMGWYRQAPGKQRELVAAINSVHRTYYADSVKGRFTITRDNAKNTVNLQMYCQKPEDSAVYYCNARYVLKVSQYGYWGQGTQVTVSS”, “high polyreactivity”.
As for “QVQLVESGGGLVQAGGSLRLSCAASGRTFLWYAMGWYRQAPGKERELVAAIRWRGTSTYYADSVKGRFTISRDNAKNTVYLQMNSLKPEDTAVYYCAAKVRSLYWFDYWGQGTQVTVSS”, the “polyreactivity (PSR sort gate)” value is recorded as “high polyreactivity”.
For “QVQLVESGGGLVQAGGSLRLICAASGSIFRYYVKGWYRQAPGKERELVASISYSVGRTYYADSVKGRFTISRDYAKNTVYLQMNSLKPEDTAVYYCAADRYWPYYSAYYTSYRMDYWGQGTQVTVSS”, the “polyreactivity (PSR sort gate)” value was “high polyreactivity”.
On to “QVQLVQSGGGLVQAGGSLRLSCADSGGTFRVYAMGSYRQAPGKERQLVASISWSSGITYYADSVKGRFTISRDNAKNTVYLQMNSLKPEDTAVYYCAAEGHVTYGAPGRLYRMGYWGQGTQVTVSS”, for which the “polyreactivity (PSR sort gate)” value is “low polyreactivity”.
Consider “QVQLVESVGGLVQAGGSLRLSCAASGITFYYNAMGWSRQAPGKERELVAVITSGGSTNYADSVKGRFTISRDNAKNTVYLQMNSLKPEDTAVYYCATDKSYSSWSAQYDYWGQGTQVTVSS”, for which the “polyreactivity (PSR sort gate)” value is “low polyreactivity”.
Then “QVQLVESGGGLVQAGGSLRLSCAASGRTFGYNAMGWYRQAPGKERELVAAISRGDSTNYADSVKGRFTISRDNAKNTVYLQMNSLKPEDTAVYYCAAAFPRYRSRAIRVDYWGQGTQVTVSS”, with “high polyreactivity”; and “QVQLVESGGGLVQAGGSLRLSCAATGFTYYRNARGSYRQAPGKERELVAAISGSGGSTYYADSVKGRFTISRDNATNTVYLQMNSLKPEDTAVYYCAAAAGSYNSGNGYWGLGTQVTVSS”, with “high polyreactivity”; and “QVQLVESGGGLVQAGGSLRLSCAASGRTFWRNAMGWYRQAPWKERELVAAISRSGDSTRYADSVKGRFTISRDNAKYSVYLQRTSLKPEATAVYYCNKLGTGVYEMDYWGQGTKVTVSS”, with “high polyreactivity”.
As to “QVQLVESGGGLVQAGGSLRLSCAASGRTFRWNAMVWYRQEPGKERELVARITSGGRTSYADSVKGRFTISRDNAKNTVYLQMNSLKPEDTAVYYCAARSIGYHWGYDYWGQGTQVTVSS”, the “polyreactivity (PSR sort gate)” value was “high polyreactivity”.
Consider “QVQLVESGGGLVQAGGILRLSCAASGSTLRTNAMGWYRQEPGKDRELVAAISTRGSSTYYADSVKGRFTISRDNAKNTVYLQMNSLQPEDTAVYYCNTAWGPRRGVNVAFDYWGQGTHVTVSS”, for which the “polyreactivity (PSR sort gate)” value is recorded as “low polyreactivity”.
In the case of “QVQLVESGGGLVQAGRSLRLSCAASGRIFISYTMGWYRPAPGKERELVAGIDSSGTSTYYADSVKGRFTISRDYAKNTVYLQMNSLIPEDTAVYYCNVVGNWKDTSTELDYWGQGTQVTVSS”, the “polyreactivity (PSR sort gate)” value was “low polyreactivity”.
Then “QVQLVESGGRLVQAGGSLRLSCAASGHIFFYYTMGRYRPGPGKERELVAGITIGGSTNYADSVKGRFTISRDNAKNTVYLLMNSLKPADTAVYYCNVVKYVYISSYWEYYYWGQGAQVTVSS”, with “low polyreactivity”; and “QVQLVESGGGLVQAGGSLRLSCAPSGRTFGRYAMGWYRQAPGKERELVAAITRSGGSTYYADSVKGRFTISRDIAKNTVYLQMNSLKPEDTAVYYCNAGWRLGRGYWGQGTEVTVSS”, with “high polyreactivity”; and “QVQLVESGGGLVQAGGSLRLSCAASGSTFFFNAMGWYRQAPGKERELVAAITGRSGSTYYADSVKGRFTISRDNAKNTVYIQMNSLKPEDTAVYYCAADYVFVATPLRYDYWGQGTQVTVSS”, with “low polyreactivity”.
Then “QVQHVESGGGLVQAGGSLRLSCAASGRTFPAYAMGWYRQAPGKERELVAAITYDGGTTYYADSVKGRFTISRYNAKNTVYLQMNSLKPEDTAVYYCADVYDEDQYDYWGQGTQVTVSS”, with “low polyreactivity”.
Under “QVQLLESGDGLVQAVGSLRLSCAASGYISGYYYMGWYRQAPGKERELVAGIDAFGSSTNYADCVKGRFTISRDNAINSVYLQMNSLKPEDTAVYYCAARPDGDRLFSYWGQGTQVTVSS” stands “low polyreactivity”; under “QDQLVESAGGLVQAGGSLRLSCAASGSNFYHYAMGWYRQAHGKERELVAAISQSGGGTYYADSVKGRFTISRDNAKNTVYLQMNSLKPEDTAVYYFAAKGRHNYYYWGQGTLVTVSS”, “high polyreactivity”.

These data come from the nanobody polyreactivity screen of Harvey et al. (2022).
